Results on 30 sequences are retold here after the nanobody polyreactivity screen of Harvey et al. (2022).

The nature of this data set: yeast display, Sf9 membrane polyspecificity reagent, FACS + sequencing; frameworks hold sequencing errors. In outline: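 Nanobodies came from a synthetic yeast display library in Saccharomyces cerevisiae BJ5465, induced with galactose for 36–48 hours and stained for 1 hour at 4 °C with 10% biotinylated, detergent-solubilized Sf9 membrane reagent. Cells were enriched on streptavidin microbeads and then FACS-sorted, with low and high (top ~1%) gates set on anti-HA fluorescence for expression and streptavidin fluorescence for reagent binding. Each polyreactivity label reflects the gate a clone came from. Genes were amplified by colony PCR, sequenced by MiSeq 2 × 250 and filtered by CDR length.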
With “QVQLVESGGGLVQAGGSLRLSCAASGLIFLYYAMGWYRQAPGKERELVAAISRRGGSTYYADSVKGRFTISRDNAKNTVYLQMNSLKPEDTAVDYCAANYESYPRGIWTYYYWGQGTQVTVSS”, the “polyreactivity (PSR sort gate)” value was “high polyreactivity”.

For “QVQLVESGGGLVQAGGSLRLSCAASGLIFNLNAMGWYSPAPGKEREFVATITGIGGSTYYADSVKGRFTISRDNAKNTVYLQMNSLKPEDTAVYYCAADAWFVPYNYWGQGTQVTVSS”, the “polyreactivity (PSR sort gate)” value was “low polyreactivity”.

On to “QVQLVESGGGLVQAGGSLRLSCAASGLIFPIYAMGWYRPAPGKERELVAVITWSGGSTYYADSVKGRFTISRDNAKNTVYLQMNSLKPEDTAVYYCSVEWAYPYWYTYYLEDYWGQGTQVTVSS”, for which the “polyreactivity (PSR sort gate)” value was “low polyreactivity”.

Consider “QVQLVESGGGLVQAGGSLRLSCAASGLIFPIYAMGWYRQAPGKERELVAVITWSGGSTYYADSVKGRFTISRDNAKNTVYLQMNSLKPEDTAVYYCAVEWAYPYWYTYYLEDYWGQGTQVTVSS”, for which the “polyreactivity (PSR sort gate)” value was “low polyreactivity”.

Regarding “QVQLVESGGGLVQAGGSLRLSCAASGLIFPLYDMGWYIQAPGKDRELVAAITWGGGGTYYADSVKGRFTISRDNAKNTVYLQMNSLKPEDTAVYYCNADSDIAAPLRTYITFDYWGQGTQVTVSS”, the “polyreactivity (PSR sort gate)” value is recorded as “low polyreactivity”.

Take “QVQLVESGGGLVQAGGSLRLSCAASGLIFPPNVMGWYRQAPGKDRELVAAITSSGSTNYADSVTGRFTISRDNAKNTVYLQMNSLKPEDTAVYYCARDQTWSYQPWYYLSYTQYEYWGQGNQVTVSS”: the “polyreactivity (PSR sort gate)” value was “low polyreactivity”.

Consider “QVQLVESGGGLVQAGGSLRLSCAASGLIFPRYAMGWYRQAPGKERELVAAISSGGSTNYADSVKGRFTISRDNAKNTVYLQMNSLKPEDTAVYYCAASSYYYRFSRWPYYHRYYWGQGTQVTVSS”, for which the “polyreactivity (PSR sort gate)” value is “low polyreactivity”.

Take “QVQLVESGGGLVQAGGSLRLSCAASGLIFPRYGMGGYRPAPGKERELVAAITRGGSTYYADSVKGRFTISRDNAKNTVYLQMNSLKPEDTAVYYCIAELPVHWSWYDYWGHGTQVTVSS”: the “polyreactivity (PSR sort gate)” value is listed as “low polyreactivity”.

On to “QVQLVESGGGLVQAGGSLRLSCAASGLIFPRYGMVWYRKAPGKERELVAAISWSGGSTYYADSVKGRFTISRDNAKNTVYLQMNSLKPEDTAVYYCAVLSNRGVYGSDYWGQGTQVTVSS”, for which the “polyreactivity (PSR sort gate)” value is recorded as “high polyreactivity”.

In the case of “QVQLVESGGGLVQAGGSLRLSCAASGLIFPSYTMGWYRQAPGKERELVAAITFSGDSTNYADSVKGRFTISRDNAKNTVYLQMNSLKPEDTAVYYCAASQVSDTTRFGYWGQGTQVTVSS”, the “polyreactivity (PSR sort gate)” value was “low polyreactivity”.

On to “QVQLVESGGGLVQAGGSLRLSCAASGLIFPVYAMGWYRQAPGKDREFVASIWRGGTTYYADSVKGRFTISRDNAKNTVYLQMNSLKPEDTAVYYCAAVVYSRGYYWGQGTQVTVSS”, for which the “polyreactivity (PSR sort gate)” value is “high polyreactivity”.

As to “QVQLVESGGGLVQAGGSLRLSCAASGLIFPYNAMGWYRQAPGKERELVAAIDTRGSSTYYADSVKGRFTISRDNAKNTVYLQMNSLKPEDTAVYYCAADYRVQLRKEYDYWGQGTQVTVSS”, the “polyreactivity (PSR sort gate)” value is “high polyreactivity”.

With “QVQLVESGGGLVQAGGSLRLSCAASGLIFPYYAMGWYRQAPGKERELVAAISYRGSRTYYADSVKGRFTISRDNAKNTVYLQMNSLKPEDTAVYYCIAGVSGRDNYWGQGTQVNVSS”, the “polyreactivity (PSR sort gate)” value is listed as “high polyreactivity”.

In the case of “QVQLVESGGGLVQAGGSLRLSCAASGLIFQVYTMGWYRQAPGKERELVAAISWDAGSTYYADSVKGRFTISRDNAKNTVYLQMNSLKPEDTAVYYCAAKRKIRGYGPYEYWGQGTQVTVSS”, the “polyreactivity (PSR sort gate)” value is on record as “high polyreactivity”.

For “QVQLVESGGGLVQAGGSLRLSCAASGLIFRAYAMGWSRPAPGKERELVAAITSSSGSTYYADSVKGRFTISRDNAKNTVYLQMNSLTPEDTAVYYCNAYSTFGWYDYWGQGTQVTVSS”, the “polyreactivity (PSR sort gate)” value is listed as “low polyreactivity”.

As to “QVQLVESGGGLVQAGGSLRLSCAASGLIFRHYAMGWYRQAPGKERELVAAIDYSGGSTYYADSVKGRFTISRDNAKNTVYLQMNSLKPEDTAVYYCAADYFWLYYSEYGYWGQGTQVTVSS”, the “polyreactivity (PSR sort gate)” value is on record as “low polyreactivity”.

As for “QVQLVESGGGLVQAGGSLRLSCAASGLIFRHYAMGWYRQSPGKEREFVAAITWSGGSTYYADSVKGRFTISRDNAKNTVYLQMNSLKPEDTAVYYCAAEGPGYGPTGDFYWYTYYYWGQGSQVTVSS”, the “polyreactivity (PSR sort gate)” value is listed as “low polyreactivity”.

With “QVQLVESGGGLVQAGGSLRLSCAASGLIFRPYTMGWYRQAPGKERELVATISGSGASTNYADSVKGRFTISRDNAKNTVYLQMNSLKPEDTAVYYCKGRSYSRMYYWGQGTQVTVSS”, the “polyreactivity (PSR sort gate)” value was “high polyreactivity”.

Consider “QVQLVESGGGLVQAGGSLRLSCAASGLIFRRYAMGWYRQAPGKERELVAAITSSGGSTYYADSVKGRFTISRDNAKNTVYLQMNSLKPEDTAVYYCNAYYTGRSAPDSWGQGTQVTVSS”, for which the “polyreactivity (PSR sort gate)” value is “high polyreactivity”.

With “QVQLVESGGGLVQAGGSLRLSCAASGLIFRRYAMGWYRQAPGKERELVATINSGGSTNYADSVKGRFTISRDNAKNTVYLQMNSLKPEDTAVYYCAAKKFRRFTKWYDYWGQGTQVTVSS”, the “polyreactivity (PSR sort gate)” value is given as “high polyreactivity”.

With “QVQLVESGGGLVQAGGSLRLSCAASGLIFRSNAMGWYRQAPGKERELVAAISRNGQSTYYADSVKGRFTISRDNAKYTVYLQMNSLKPEDTAVFYCAARSRDKYDYWGQGTEVTVSS”, the “polyreactivity (PSR sort gate)” value was “high polyreactivity”.

Take “QVQLVESGGGLVQAGGSLRLSCAASGLIFRVNAMGWYRQAPGKERELVADINSGGGTSYADSVKGRFTISRDNAKNTVYLQMNSLKPEDTAVYYCAAAWWPYSYPTYYSQYDYWGQGTQVTVSS”: the “polyreactivity (PSR sort gate)” value is on record as “low polyreactivity”.

“QVQLVESGGGLVQAGGSLRLSCAASGLIFRVYAMGRYRQAPGKERELVATITRGGRTYYADSVKGRFTISRDNAKNTVYLQMNSLKPEDTAVYYCAVLSVRRSYNYWGQGTQVTVSS”: the “polyreactivity (PSR sort gate)” value is recorded as “high polyreactivity”.

Consider “QVQLVESGGGLVQAGGSLRLSCAASGLIFRWYAMGWYRQAPGKERELVAAISRRGGNTYYADSVKGRFTISRDNAKNTVYLQMNSLKPEDTAVYYCAASPIRSQGNDYWGQGTQVNVSS”, for which the “polyreactivity (PSR sort gate)” value is listed as “high polyreactivity”.

For the sequence “QVQLVESGGGLVQAGGSLRLSCAASGLIFRWYAMGWYRQAPGKETELVAAINYSGGRTYYADSVKGRFTISRDNAKNTVYLQMNSLKPEDTAVYYCNAVAVPSTYDYWGQGTQVTVSS”, the “polyreactivity (PSR sort gate)” value is recorded as “low polyreactivity”.

On to “QVQLVESGGGLVQAGGSLRLSCAASGLIFRWYAMGWYRTAPGKERELVAAISRRGGTTNYADSVKGRFTISRDNAKNTVYLQMNSLKPDDTAVYYCAADYQSVGGAEYDYWGQGTQVTVSS”, for which the “polyreactivity (PSR sort gate)” value is on record as “high polyreactivity”.

“QVQLVESGGGLVQAGGSLRLSCAASGLIFRYYAMGWYRQAPGKERELVASISWHGGSTNYADSVKGRFTISRDNAKNTVYLQMNSLKPEDTAVYYCAADAWVATTILHDYWGQGTQVTVSS”: the “polyreactivity (PSR sort gate)” value is on record as “high polyreactivity”.

Regarding “QVQLVESGGGLVQAGGSLRLSCAASGLIFRYYSMGWYRQAPGKERELVAAISWTGGSTYYADSVKGRFTISRDNAKYTVYLQLNSLKPEDTAVYYCIAGQWRYPGLYYYWGQGTQVTVSS”, the “polyreactivity (PSR sort gate)” value is reported as “high polyreactivity”.

In the case of “QVQLVESGGGLVQAGGSLRLSCAASGLIFSEYAMGWSRQAPGKETELVADIRSDGGSTYYADSVKGRFTISRDNAKNTVYLQINSLKPEDTAVYYCNAPYRRSAKFRRYGYDYWGQGTQVTVSS”, the “polyreactivity (PSR sort gate)” value is given as “high polyreactivity”.

Regarding “QVQLVESGGGLVQAGGSLRLSCAASGLIFSNNAMGWYRQAPGKERELVAAISKSGGGTSYADSVKGRFTISRDNAKNTVYLQMNSLKPEDTAVYYCAARFRQFRVDYWGQGTQVTVSS”, the “polyreactivity (PSR sort gate)” value was “high polyreactivity”.
